The values that follow are results of earlier work, collected in PMC4474783.

Data set [1] has as its target calreticulin (Homo sapiens) (UniProt P27797).
Data set [2] deals with calnexin (Homo sapiens) (UniProt P27824).
Data set [3] addresses calreticulin 189-288 (Homo sapiens) (UniProt P27797).
Data set [4] concerns the target calnexin P-domain (Homo sapiens) (UniProt P27824). Briefly: ITC. (ITC needs no label: the signal is the heat of the interaction.)

On to CypB (from UniProt P23284), for which the Kd in data set [1] and in data set [2] was 10 µM in each case.
With ERp57 (from UniProt P30101), the Kd (as a rule, the equilibrium constant for the complex coming apart) was 9 µM in data set [3] and 26 µM in data set [4].
